Drawing on patent publication US7192720, this text covers enrichment of target phage relative to negative phage, percent of phage recovered from the TNFR band that were target phage and fold more phage recovered from the TNFR band than from the negative control for one substance.

Assay [1] concerns the target soluble rhTNFR-1 extracellular domain protein (human) (UniProt P19438). As to the kind of experiment: Western blot of soluble hTNFR probed with AF225 pre-mixed with 1:10 BAF225-3 : wild type T7 phage; plaque lift of recovered phage with AF225. In general terms: In western blotting, separated proteins are transferred to a membrane and probed.
Sequence of UniProt P19438 (P19438 30-211 limits assumed): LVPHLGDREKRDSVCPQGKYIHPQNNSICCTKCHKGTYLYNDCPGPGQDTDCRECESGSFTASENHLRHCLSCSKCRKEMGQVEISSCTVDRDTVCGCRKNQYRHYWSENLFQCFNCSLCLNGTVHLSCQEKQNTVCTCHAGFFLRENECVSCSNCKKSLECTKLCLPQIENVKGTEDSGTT
For assay [2] the target is unchanged. As to the kind of experiment: Western blot of soluble hTNFR probed with AF225 pre-mixed with 1:10 BAF225-3 : wild type T7 phage; phage eluted from excised bands and titered.

In assay [1], “goat anti-hTNFR polyclonal antibody (AF225)” yielded an enrichment of target phage relative to negative phage of 190 fold and a percent of phage recovered from the TNFR band that were target phage of 95%. The fold more phage recovered from the TNFR band than from the negative control in assay [2] turned out to be 100 fold.
